Key:
[1] = biological target: T1, orexin receptor 1 (OX1R) (human (endogenous in HepG2)) (UniProt O43613)
T1 sequence: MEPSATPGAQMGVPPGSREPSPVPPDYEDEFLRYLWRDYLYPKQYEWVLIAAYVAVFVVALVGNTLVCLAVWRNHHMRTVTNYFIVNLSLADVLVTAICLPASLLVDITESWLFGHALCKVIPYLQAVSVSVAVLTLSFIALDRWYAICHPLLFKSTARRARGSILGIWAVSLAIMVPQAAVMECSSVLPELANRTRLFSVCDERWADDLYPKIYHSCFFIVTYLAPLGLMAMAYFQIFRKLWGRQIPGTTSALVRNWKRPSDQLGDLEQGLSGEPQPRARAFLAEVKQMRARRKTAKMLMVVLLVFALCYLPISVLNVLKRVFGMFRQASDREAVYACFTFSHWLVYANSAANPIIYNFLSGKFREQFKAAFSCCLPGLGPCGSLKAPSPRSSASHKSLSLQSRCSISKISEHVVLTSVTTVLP

[2] = biological target: T1, orexin receptor 1 (OX1R) (human (endogenous in HepG2)); remark: listed apart in the source
[3] = biological target: T1, orexin receptor 1 (OX1R) (human (endogenous in HepG2)); remark: listed apart in the source

GLUT1 protein expression (western blot) in HepG2 cells, orexin A 10^-9 to 10^-7 M for 2 h, fold of untreated cells; blocked by the OX1R inhibitor SB334867 (10^-6 M) [1]: 2.43 fold
glucose uptake (2-deoxy-D-[3H]glucose) in HepG2 cells, orexin A 10^-9 to 10^-7 M, fold of control; blocked by the OX1R inhibitor SB334867 (10^-6 M) [1]: 1.71 fold
cellular ATP content in HepG2 cells, orexin A 10^-9 to 10^-7 M for 2 h, fold of control; abrogated by the OX1R inhibitor SB334867 (10^-6 M) [2]: 3.03 fold
LDHA mRNA (real-time PCR) in HepG2 cells, 10^-7 M orexin A for 2 h, fold against control; dampened by the OX1R inhibitor SB334867 (10^-6 M) [3]: 0.5 fold
PDK1 mRNA (real-time PCR) in HepG2 cells, 10^-7 M orexin A for 2 h, fold against control; dampened by the OX1R inhibitor SB334867 (10^-6 M) [3]: 0.53 fold
B1: Orexin A (peptide)
peptide: QPLPDCCRQKTCSCRLYELLHGAGNHAAGILTL

From PMC5590901
